Key:
[1] = molecular target: T1, chL1-S1 chimeric human/murine HER-3 ECD Fc fusion (human; murine, UniProt P21860 20-632); experiment: ELISA on chL1-S1 Fc (Figure 30)
T1 construct: also called chLl-Sl; chimeric ECD comprising human L1-S1 domains and murine L2-S2 domains; not shown: murine IgG2A hinge, CH2, and CH3 region (pmuFc2ANL vector)
T1 chain: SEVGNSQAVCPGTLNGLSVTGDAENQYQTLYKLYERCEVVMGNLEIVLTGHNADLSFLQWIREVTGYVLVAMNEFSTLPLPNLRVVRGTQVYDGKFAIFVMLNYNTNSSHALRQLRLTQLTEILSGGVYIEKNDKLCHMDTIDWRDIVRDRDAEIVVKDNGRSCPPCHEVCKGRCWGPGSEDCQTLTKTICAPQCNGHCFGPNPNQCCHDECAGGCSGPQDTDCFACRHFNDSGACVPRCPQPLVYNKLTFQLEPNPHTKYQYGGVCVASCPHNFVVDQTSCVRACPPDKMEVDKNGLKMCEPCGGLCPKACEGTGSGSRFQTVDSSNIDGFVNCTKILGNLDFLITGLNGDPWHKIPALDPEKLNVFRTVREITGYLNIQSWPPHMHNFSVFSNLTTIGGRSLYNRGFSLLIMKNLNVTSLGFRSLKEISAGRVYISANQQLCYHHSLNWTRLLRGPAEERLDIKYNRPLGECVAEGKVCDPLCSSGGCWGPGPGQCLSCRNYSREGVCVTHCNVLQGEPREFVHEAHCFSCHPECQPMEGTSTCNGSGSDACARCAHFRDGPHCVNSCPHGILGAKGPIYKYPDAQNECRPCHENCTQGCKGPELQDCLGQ

[2] = molecular target: T2, chL2-S2 chimeric human/murine HER-3 ECD Fc fusion (murine; human, UniProt Q61526 20-632); experiment: ELISA on chL2-S2 Fc
T2 construct: also called chL2-S2-Fc; chimeric ECD comprising murine L1-S1 domains and human L2-S2 domains; not shown: murine IgG2A hinge, CH2, and CH3 region (pmuFc2ANL vector)
T2 chain: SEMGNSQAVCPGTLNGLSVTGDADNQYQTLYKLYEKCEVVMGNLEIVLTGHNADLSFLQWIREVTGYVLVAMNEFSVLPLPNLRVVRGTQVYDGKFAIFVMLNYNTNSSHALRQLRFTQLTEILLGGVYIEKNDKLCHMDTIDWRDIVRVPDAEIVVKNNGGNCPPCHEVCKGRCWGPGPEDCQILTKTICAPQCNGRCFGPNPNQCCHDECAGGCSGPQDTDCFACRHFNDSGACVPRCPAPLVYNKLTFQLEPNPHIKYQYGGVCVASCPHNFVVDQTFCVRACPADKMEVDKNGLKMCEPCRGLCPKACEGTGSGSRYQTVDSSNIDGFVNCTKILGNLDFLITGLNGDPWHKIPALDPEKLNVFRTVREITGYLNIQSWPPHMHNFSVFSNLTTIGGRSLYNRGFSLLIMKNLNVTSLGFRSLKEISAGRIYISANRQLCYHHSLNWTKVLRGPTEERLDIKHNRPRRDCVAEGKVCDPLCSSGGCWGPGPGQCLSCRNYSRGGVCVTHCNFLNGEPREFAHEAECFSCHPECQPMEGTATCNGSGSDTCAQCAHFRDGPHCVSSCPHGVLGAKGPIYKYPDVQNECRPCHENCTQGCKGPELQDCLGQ

B1: huHER3-10 antibody (antibody, V domains shown)
VH: QVQLVQSGPEVVKPGVSMKISCKASGYTFTDYTMNWVKQSPGQNLEWIGLINPYNDITAYNQKFQGKATLSVDKSSSTAYMELLSLTSEDSAVYYCARRGPRGAWFAYWGQGTLVTVSA
VL: DIVLTQSPASLAVSPGQRATISCRASTSVYNYGNSFMHWYQQMPGQPPKLLIYLASNLESGVPARFSGSGSRTDFTLTIDPVEANDAATYYCQQNSEDPWTFGQGTKLEIKR
notes: Recombinant humanized antibody with human constant regions; also called huHer-10; humanized (resurfaced) HER3-10
Question: What does the source list for B1?
Answer: binding result [1]: binds; binding result [2]: no binding
